Laboratory results as given in publication PMC11500988.

Target: human FcγRIIIa-V158 (CD16a, V158 allotype) (human) (UniProt P08637)

P-TMab (trastuzumab produced by the glycoengineered rice cell line PhytoRice, line PHYTO101) (antibody)
EC50 of the in vitro ADCC assay (luminescence, Bio-Glo reagent; BT-474 target cells, Jurkat cells): 0.017 µg/mL
